The results in this text go back to publication PMC8372784, “AMOTL2 mono-ubiquitination by WWP1 promotes contact inhibition by facilitating LATS activation” (Life Science Alliance, 2021).

The assay deals with T1, GST-WWP1 (WW-domain containing protein 1) (UniProt Q9H0M0 1-922).
T1 construct: WWP1, HECT-type E3 ligase, full length; source: baculovirus-infected Sf9 insect cells, purified
In words: pull-down; GST or GST-WWP1 (1 μg) immobilised on glutathione-Sepharose 4B, 200 ng AMOTL2-V5; 20 mM Tris-Cl pH 7.9, 150 mM KCl, 0.2 mM EDTA, 20% glycerol, 0.05% NP-40, 0.2 mg/ml BSA; 4°C, 3 h; Western blot. The note with it: both partners purified.

B1: AMOTL2-V5 (angiomotin-like 2) (natural protein, UniProt Q9Y2J4 1-779, looked up)
chain: MRTLEDSSGTVLHRLIQEQLRYGNLTETRTLLAIQQQALRGGAGTGGTGSPQASLEILAPEDSQVLQQATRQEPQGQEHQGGENHLAENTLYRLCPQPSKGEELPTYEEAKAHSQYYAAQQAGTRPHAGDRDPRGAPGGSRRQDEALRELRHGHVRSLSERLLQLSLERNGARAPSHMSSSHSFPQLARNQQGPPLRGPPAEGPESRGPPPQYPHVVLAHETTTAVTDPRYRARGSPHFQHAEVRILQAQVPPVFLQQQQQYQYLQQSQEHPPPPHPAALGHGPLSSLSPPAVEGPVSAQASSATSGSAHLAQMEAVLRENARLQRDNERLQRELESSAEKAGRIEKLESEIQRLSEAHESLTRASSKREALEKTMRNKMDSEMRRLQDFNRDLRERLESANRRLASKTQEAQAGSQDMVAKLLAQSYEQQQEQEKLEREMALLRGAIEDQRRRAELLEQALGNAQGRAARAEEELRKKQAYVEKVERLQQALGQLQAACEKREQLELRLRTRLEQELKALRAQQRQAGAPGGSSGSGGSPELSALRLSEQLREKEEQILALEADMTKWEQKYLEERAMRQFAMDAAATAAAQRDTTLIRHSPQPSPSSSFNEGLLTGGHRHQEMESRLKVLHAQILEKDAVIKVLQQRSRRDPGKAIQGSLRPAKSVPSVFAAAAAGTQGWQGLSSSERQTADAPARLTTDRAPTEEPVVTAPPAAHAKHGSRDGSTQTEGPPDSTSTCLPPEPDSLLGCSSSQRAASLDSVATSRVQDLSDMVEILI
notes: AMOTL2 (angiomotin-like 2), full length; The legends print AMOTL-V5; the text prints AMOTL2-V5; also called AMOTL-V5; source: baculovirus-infected Sf9 insect cells, purified
Regarding B1, the binding result is “binds”.
